In US20200157212A1 (Pfizer, published 2020):

T1: Terbium (Tb) labeled-SNAP tagged ROBO2 expressed on HEK293 cells (Homo sapiens (Human), UniProt Q9HCK4 22-1378, terbium label on the SNAP tag)
T1 construct: also called Tb-labeled ROBO2 cells; ROBO2 expressing cells; not shown: SNAP tag
T1 sequence: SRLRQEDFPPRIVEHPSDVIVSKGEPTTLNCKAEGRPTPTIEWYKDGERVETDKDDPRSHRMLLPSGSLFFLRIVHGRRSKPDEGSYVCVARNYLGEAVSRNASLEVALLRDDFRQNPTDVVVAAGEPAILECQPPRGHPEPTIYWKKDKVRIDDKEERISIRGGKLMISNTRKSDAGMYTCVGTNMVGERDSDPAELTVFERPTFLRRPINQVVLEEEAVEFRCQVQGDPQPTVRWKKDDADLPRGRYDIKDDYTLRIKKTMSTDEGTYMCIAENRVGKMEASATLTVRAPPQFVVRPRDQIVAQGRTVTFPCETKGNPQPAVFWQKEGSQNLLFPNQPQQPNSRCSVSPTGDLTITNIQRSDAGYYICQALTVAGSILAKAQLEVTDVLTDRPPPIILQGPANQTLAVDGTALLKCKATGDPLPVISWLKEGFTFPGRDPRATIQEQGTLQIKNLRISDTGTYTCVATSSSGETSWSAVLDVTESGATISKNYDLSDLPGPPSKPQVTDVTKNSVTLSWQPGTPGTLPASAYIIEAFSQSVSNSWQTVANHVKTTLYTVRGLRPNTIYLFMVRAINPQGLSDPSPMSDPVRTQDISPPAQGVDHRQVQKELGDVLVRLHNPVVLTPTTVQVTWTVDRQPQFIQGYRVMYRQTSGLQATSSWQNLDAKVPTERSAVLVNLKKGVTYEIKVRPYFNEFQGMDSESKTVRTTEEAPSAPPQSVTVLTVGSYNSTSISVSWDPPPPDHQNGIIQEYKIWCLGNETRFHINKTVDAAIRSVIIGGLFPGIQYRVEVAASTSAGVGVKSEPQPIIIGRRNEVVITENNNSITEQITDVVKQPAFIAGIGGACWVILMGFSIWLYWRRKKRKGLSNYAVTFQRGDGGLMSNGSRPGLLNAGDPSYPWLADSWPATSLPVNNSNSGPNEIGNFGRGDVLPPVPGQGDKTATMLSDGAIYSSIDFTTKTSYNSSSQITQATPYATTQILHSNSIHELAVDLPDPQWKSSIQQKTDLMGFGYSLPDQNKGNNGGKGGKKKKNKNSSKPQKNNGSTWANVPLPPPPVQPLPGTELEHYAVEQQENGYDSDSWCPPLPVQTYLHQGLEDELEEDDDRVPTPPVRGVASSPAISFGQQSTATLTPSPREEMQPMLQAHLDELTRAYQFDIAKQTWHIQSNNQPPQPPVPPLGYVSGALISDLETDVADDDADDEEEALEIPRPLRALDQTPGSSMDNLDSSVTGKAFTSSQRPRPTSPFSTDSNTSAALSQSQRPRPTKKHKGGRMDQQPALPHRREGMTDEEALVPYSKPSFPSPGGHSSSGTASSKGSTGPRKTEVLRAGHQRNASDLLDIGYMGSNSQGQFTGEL

T2: Human ROBO2 overexpressed on HEK293 cells (human, UniProt Q9HCK4 22-1378)
T2 construct: also called ROBO2 cells; native ROBO2
T2 sequence: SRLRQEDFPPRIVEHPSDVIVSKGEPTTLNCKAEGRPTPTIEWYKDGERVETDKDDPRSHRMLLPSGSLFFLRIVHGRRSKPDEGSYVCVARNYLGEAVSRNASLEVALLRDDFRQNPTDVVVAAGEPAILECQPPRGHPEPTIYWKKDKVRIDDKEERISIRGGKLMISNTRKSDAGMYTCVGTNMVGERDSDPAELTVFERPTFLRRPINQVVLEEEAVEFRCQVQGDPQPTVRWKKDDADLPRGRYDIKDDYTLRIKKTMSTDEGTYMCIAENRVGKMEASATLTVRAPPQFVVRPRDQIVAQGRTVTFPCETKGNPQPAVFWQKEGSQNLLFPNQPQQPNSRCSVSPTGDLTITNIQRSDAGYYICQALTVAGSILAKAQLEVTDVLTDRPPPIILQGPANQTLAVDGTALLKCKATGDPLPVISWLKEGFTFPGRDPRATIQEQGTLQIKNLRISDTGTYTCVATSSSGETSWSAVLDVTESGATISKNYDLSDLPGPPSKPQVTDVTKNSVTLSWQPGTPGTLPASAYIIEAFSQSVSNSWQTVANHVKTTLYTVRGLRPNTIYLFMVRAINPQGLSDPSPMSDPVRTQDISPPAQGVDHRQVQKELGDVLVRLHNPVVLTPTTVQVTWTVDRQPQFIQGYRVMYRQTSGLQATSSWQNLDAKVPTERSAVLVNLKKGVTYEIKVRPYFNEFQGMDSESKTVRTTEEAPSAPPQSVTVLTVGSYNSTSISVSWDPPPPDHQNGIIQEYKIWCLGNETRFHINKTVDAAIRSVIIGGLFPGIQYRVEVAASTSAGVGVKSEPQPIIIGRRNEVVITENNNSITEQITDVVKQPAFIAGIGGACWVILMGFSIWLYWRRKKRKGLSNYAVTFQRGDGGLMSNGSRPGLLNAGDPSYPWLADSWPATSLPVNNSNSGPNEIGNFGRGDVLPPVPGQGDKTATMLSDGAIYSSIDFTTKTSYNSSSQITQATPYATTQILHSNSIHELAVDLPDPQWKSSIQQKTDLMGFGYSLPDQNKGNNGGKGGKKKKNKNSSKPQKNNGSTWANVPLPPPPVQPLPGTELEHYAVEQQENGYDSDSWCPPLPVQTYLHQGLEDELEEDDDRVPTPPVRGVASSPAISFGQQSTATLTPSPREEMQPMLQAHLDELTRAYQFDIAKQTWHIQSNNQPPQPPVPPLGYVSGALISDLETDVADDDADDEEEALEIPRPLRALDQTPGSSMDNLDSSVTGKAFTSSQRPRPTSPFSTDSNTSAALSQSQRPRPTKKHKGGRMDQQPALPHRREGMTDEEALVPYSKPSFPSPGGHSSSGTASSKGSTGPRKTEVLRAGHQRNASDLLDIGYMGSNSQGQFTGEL


Assays:
[1] = biological target: T1, Terbium (Tb) labeled-SNAP tagged ROBO2 …; assay: HTRF, 5 nM d2-SLIT2-N on Tb-SNAP-ROBO2 HEK293 cells, 1 nM antibody
Outline: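 Tb-SNAP-ROBO2 HEK293 cells incubated 1 hour with 5 nM d2-SLIT2-N, with 1 nM anti-ROBO2 antibody or none (maximal signal); cells alone gave minimum. HTRF read at 665/620 nm; IC50 series used 11-point, 5-fold dilutions from 1500 nM.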

[2] = biological target: T2, Human ROBO2 overexpressed on HEK293 …; assay: flow cytometry, Geo MFI ROBO2/ROBO1 HEK293 cells, 2.5 µg/ml
Protocol: Binding of the antibodies was detected using a secondary fluorochrome conjugated anti-human IgG F(ab′)₂ antibody and samples were analyzed on a Fortessa cytometer (BD Biosciences). The fold ROBO2 selectivity was calculated as the geometric mean fluorescence intensity (Geo MFI) with ROBO2 cells/Geo MFI with ROBO1 cells. A fold change higher than 3 was considered to be ROBO2 specific (Table 2, Fold Selectivity). Some affinity matured clones had increased ROBO1 reactivity, for example Abcs 55, CTI-R2-10 and CTIR2-13.
HTRF assays were run with 5 nM d2-labeled SLIT2-N and antibodies were added at 1 nM. […] Antibodies derived from chain (Abcs series) or CDR shuffling (CTIR-2 series) were evaluated in 11-point, 5-fold dilution series with a top concentration of 1500 nM, N.T. = not tested; ^cFold selectivity was calculated as Geometric Mean Fluorescent Intensity (Geo MFI) of ROBO2/Geo MFI of ROBO1 binding. […] Outcomes: results are listed in order of assays listed in the table (left to right), I.A. = Improved Affinity

[3] = biological target: T3, Human ROBO1 RSK mutant overexpressed on HEK293 cells (human, UniProt Q9Y6N7 26-1651); assay: flow cytometry, Geo MFI ROBO1-RSK/ROBO2-KSR HEK293 cells, 2.5 µg/ml
T3 construct: K137R and R139K already in the entry; also called ROBO1-RSK cells
T3 sequence (Q9Y6N7 other isoform, or with tags, fused parts or gaps mutant limits assumed): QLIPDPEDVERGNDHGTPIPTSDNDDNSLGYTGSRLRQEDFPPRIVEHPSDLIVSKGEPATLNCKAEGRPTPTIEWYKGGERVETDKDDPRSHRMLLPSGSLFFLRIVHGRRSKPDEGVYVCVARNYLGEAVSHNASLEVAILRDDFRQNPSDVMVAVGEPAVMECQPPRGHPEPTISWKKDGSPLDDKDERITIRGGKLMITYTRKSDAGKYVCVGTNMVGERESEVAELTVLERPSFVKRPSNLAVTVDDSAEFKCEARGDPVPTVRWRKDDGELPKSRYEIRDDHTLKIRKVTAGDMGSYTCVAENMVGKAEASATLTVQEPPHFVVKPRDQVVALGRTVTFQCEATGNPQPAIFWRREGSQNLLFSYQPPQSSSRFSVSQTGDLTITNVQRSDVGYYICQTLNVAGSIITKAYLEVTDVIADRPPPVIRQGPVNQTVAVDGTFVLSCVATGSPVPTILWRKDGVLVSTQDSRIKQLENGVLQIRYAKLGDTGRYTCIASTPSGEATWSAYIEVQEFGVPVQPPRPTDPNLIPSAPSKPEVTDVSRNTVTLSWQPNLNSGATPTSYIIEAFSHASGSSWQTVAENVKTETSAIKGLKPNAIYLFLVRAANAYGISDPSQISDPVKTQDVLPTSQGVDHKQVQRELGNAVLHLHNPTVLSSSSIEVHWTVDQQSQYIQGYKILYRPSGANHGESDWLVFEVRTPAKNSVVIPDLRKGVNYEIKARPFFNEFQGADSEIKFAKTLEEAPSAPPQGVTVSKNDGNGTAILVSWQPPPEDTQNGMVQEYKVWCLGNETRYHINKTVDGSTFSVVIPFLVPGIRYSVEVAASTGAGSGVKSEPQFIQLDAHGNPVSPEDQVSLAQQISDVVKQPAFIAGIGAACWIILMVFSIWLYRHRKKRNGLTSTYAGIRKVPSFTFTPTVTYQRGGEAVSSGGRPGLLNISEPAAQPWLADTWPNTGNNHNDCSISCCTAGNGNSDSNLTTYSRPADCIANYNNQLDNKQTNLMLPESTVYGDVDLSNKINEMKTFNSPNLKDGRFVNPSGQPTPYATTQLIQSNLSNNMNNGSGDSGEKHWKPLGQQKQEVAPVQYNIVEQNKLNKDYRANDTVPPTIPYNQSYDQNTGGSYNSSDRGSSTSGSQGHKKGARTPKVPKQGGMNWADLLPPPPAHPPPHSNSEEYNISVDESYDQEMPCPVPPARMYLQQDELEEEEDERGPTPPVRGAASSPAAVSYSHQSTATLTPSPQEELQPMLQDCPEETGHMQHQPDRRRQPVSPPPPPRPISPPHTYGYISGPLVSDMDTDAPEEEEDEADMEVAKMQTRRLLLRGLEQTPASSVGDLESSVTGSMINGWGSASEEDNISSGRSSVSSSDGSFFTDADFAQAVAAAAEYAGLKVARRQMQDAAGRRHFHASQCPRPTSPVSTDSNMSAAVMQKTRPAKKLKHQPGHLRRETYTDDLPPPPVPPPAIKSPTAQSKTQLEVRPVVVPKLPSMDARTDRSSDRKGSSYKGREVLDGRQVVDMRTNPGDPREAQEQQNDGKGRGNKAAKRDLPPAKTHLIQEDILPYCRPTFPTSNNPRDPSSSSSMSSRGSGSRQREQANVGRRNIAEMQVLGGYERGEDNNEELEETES

| Binder | HTRF Ratio [1] | Fold Selectivity for ROBO2/ROBO1 [2] | Fold Selectivity for RSK/KSR [3] |
| --- | --- | --- | --- |
| 93H2 (antibody, human IgG1, kappa, V domains shown, also called parental 93H2; 93H2 mAb) VH: EVQLVQSGAEVKKPGASVKVSCKASGYTFTGYYMHWVRQAPGQGLEWMGWINPNSGATNFPQKFQGRVTMTRDTSITTAYMDLSRLRSDDTAVYYCARESGDDAFDIWGQGTMVTVSS VL: not shown | 13800 |  |  |
| CTIR2-14 (antibody, human IgG1, kappa, V domains shown, CDR-shuffled IgG) VH: EVQLVQSGAEVKKPGASVKVSCKASGYTFRGYAMHWVRQAPGQGLEWMGWIDPRTGLTKFPQKFQGRVTMTRDTSITTAYMDLSRLRSDDTAVYYCARESGDDAFDIWGQGTMVTVSS VL: DIVMTQSPSSLSASVGDRVTITCRASQKISSYLNWYQQKPGKAPKLLIYAASSLQYGVPSRFSGSGSGTDFTLTISSLQPEDFATYYCQQSLELGFGGGTKVEIKR | 3710 | 23.9 fold | > 100 fold |
| Abcs55 (antibody, human IgG1, kappa, V domains shown, chain-shuffled IgG) VH: EVQLVQSGAEVKKPGASVKVSCKASGYTFTGYYMHWVRQAPGQGLEWMGWINPKDGDTEFPQKFQGRVTMTRDTSITTAYMDLSRLRSDDTAVYYCARESGDDAFDIWGQGTMVTVSS VL: DIVMTQSPSSLSASVGDRVTITCRASQSISSYLNWYQQKPGKAPKLLIYAASSLQYGVPSRFSGSGSGTDFTLTISSLQPEDFATYYCQQSYSTSFGGGTKVEIKR | 3050 | 1.5 fold | 1.5 fold |
| CTIR2-16 (antibody, human IgG1, kappa, V domains shown, CDR-shuffled IgG) VH: EVQLVQSGAEVKKPGASVKVSCKASGYTFRGYAMHWVRQAPGQGLEWMGWIDPRTGLTKFPQKFQGRVTMTRDTSITTAYMDLSRLRSDDTAVYYCARESGDDAFDIWGQGTMVTVSS VL: DIVMTQSPSSLSASVGDRVTITCRASQKISSYLNWYQQKPGKAPKLLIYAASSLQYGVPSRFSGSGSGTDFTLTISSLQPEDFATYYCQQSVGLFFGGGTKVEIKR | 3730 | 6.2 fold | 66.5 fold |
| Abcs25 (antibody, human IgG1, kappa, V domains shown, chain-shuffled IgG) VH: EVQLVQSGAEVKKPGASVKVSCKASGYTFTGYYMHWVRQAPGQGLEWMGWINPKDGDTEFPQKFQGRVTMTRDTSITTAYMDLSRLRSDDTAVYYCARESGDDAFDIWGQGTMVTVSS VL: DIVMTQSPSSLSASVGDRVTITCRASQSISSYLNWYQQKPGKAPKLLIYAASSLQSGVPSRFSGSGSGTDFTLTISSLQPEDFATYYCQQSVGLSFGGGTKVEIKR | 3880 | 3.3 fold | 8.1 fold |
| CTIR2-15 (antibody, human IgG1, kappa, V domains shown, CDR-shuffled IgG) VH: EVQLVQSGAEVKKPGASVKVSCKASGYTFRGYAMHWVRQAPGQGLEWMGWIDPRTGLTKFPQKFQGRVTMTRDTSITTAYMDLSRLRSDDTAVYYCARESGDDAFDIWGQGTMVTVSS VL: DIVMTQSPSSLSASVGDRVTITCRASQKISSYLNWYQQKPGKAPKLLIYAASSLQYGVPSRFSGSGSGTDFTLTISSLQPEDFATYYCQQSVGLSFGGGTKVEIKR | 3750 | 12.1 fold | > 100 fold |
| Abcs35 (antibody, human IgG1, kappa, fully human IgG1; VH of Ab96 with VL of Ab123) heavy: EVQLVQSGAEVKKPGASVKVSCKASGYTFTGYYMHWVRQAPGQGLEWMGWINPKNGDTEFPQKFQGRVTMTRDTSITTAYMDLSRLRSDDTAVYYCARESGDDAFDIWGQGTMVTVSSASTKGPSVFPLAPSSKSTSGGTAALGCLVKDYFPEPVTVSWNSGALTSGVHTFPAVLQSSGLYSLSSVVTVPSSSLGTQTYICNVNHKPSNTKVDKKVEPKSCDKTHTCPPCPAPEAAGAPSVFLFPPKPKDTLMISRTPEVTCVVVDVSHEDPEVKFNWYVDGVEVHNAKTKPREEQYNSTYRVVSVLTVLHQDWLNGKEYKCKVSNKALPAPIEKTISKAKGQPREPQVYTLPPSREEMTKNQVSLTCLVKGFYPSDIAVEWESNGQPENNYKTTPPVLDSDGSFFLYSKLTVDKSRWQQGNVFSCSVMHEALHNHYTQKSLSLSPGK light: DIVMTQSPSSLSASVGDRVTITCRASQSISSYLNWYQQKPGKAPKLLIYAASSLQSGVPSRFSGSGSGTDFTLTISSLQPEDFATYYCQQSVGLFFGGGTKVEIKRTVAAPSVFIFPPSDEQLKSGTASVVCLLNNFYPREAKVQWKVDNALQSGNSQESVTEQDSKDSTYSLSSTLTLSKADYEKHKVYACEVTHQGLSSPVTKSFNRGEC | 3940 | 4.8 fold | 6.6 fold |
| Abcs20 (antibody, human IgG1, kappa, V domains shown, chain-shuffled IgG) VH: EVQLVQSGAEVKKPGASVKVSCKASGYTFTGYYMHWVRQAPGQGLEWMGWINPKNGDTEFPQKFQGRVTMTRDTSITTAYMDLSRLRSDDTAVYYCARESGDDAFDIWGQGTMVTVSS VL: DIVMTQSPSSLSASVGDRVTITCRASQSISSYLNWYQQKPGKAPKLLIYAASSLQSGVPSRFSGSGSGTDFTLTISSLQPEDFATYYCQQSVGLSFGGGTKVEIKR | 3970 | 5.2 fold | 7 fold |
| Abcs40 (antibody, human IgG1, kappa, V domains shown, chain-shuffled IgG) VH: EVQLVQSGAEVKKPGASVKVSCKASGYTFTGYYMHWVRQAPGQGLEWMGWINPKDGDTEFPQKFQGRVTMTRDTSITTAYMDLSRLRSDDTAVYYCARESGDDAFDIWGQGTMVTVSS VL: DIVMTQSPSSLSASVGDRVTITCRASQSISSYLNWYQQKPGKAPKLLIYAASSLQSGVPSRFSGSGSGTDFTLTISSLQPEDFATYYCQQSVGLFFGGGTKVEIKR | 3390 | 4.8 fold | 9.3 fold |
